Measured values as given in the PETadex activity labels (doi:10.1093/ismejo/wraf068).

B1: unnamed (protein)
chain: MEKPVVFENEGQQIVGMLHAPDGAEGLSPAVVMFHGFTGTKVEPHRLFVKTARRLAEEGFYVLRFDFRGSGDSEGEFREMTLEGEISDAKASLDFILSQPGVDRGRIGVIGLSMGGGVAACLAGRDERVRAVALWAAVSEDPPDLFQELIKTFEERPDKSVDYVDMGGNLVGKGFFEDLRNVKPLQEISGFEGPVLIVHGDNDQTVSVEHAYRFYERLKGKHPLTALHIIRGADHTFNSHEWEREVIEVTVDFMKRA
B2: unnamed (protein)
chain: VGTISFDLVDKERLELYGDKIGEERKFKAQMWYPSDDVTEGERAPWIEDGVKVSRMIPKDIGLPGFLIDYSSLIKSNSYKGVPISEKEEKYPIVIISHGWTGYRNIHTDIGELLASHGYIAISIDHTYGSLATVFDNGEVIEVDYGALPNRNETEDFLDYANALVTTYAYDSRFVLDYLEELDDSELIDGRLDLDRIGTLGHSTGGGGVVKIAIEDDRIKAIFGFDPWVEPIEDELLKIGLDVPSLFIRSEQWEEGYNNGYLTTLINHSVIKPMTYQMNGVNHLDFTMLYMYRPILQAFGFAGELDSQVSSKIQLEYVLKFFETYLKDNETNLNDIEKIYDSVIPVNY
B3: unnamed (protein)
chain: CNDGSGGLEKTTELEPEDIYPLGDYYDPGKTGPYEVGVKTILLADNSRRTMLGHTKRILLTEVWYPILAPGDKINTVGDMIGQLPEWTPQILESFYGENWEDLLNIQTSAWRDAKTFLPDHPFPVIFFSHGLTALRFQNYTLCEHLASHGFLVIAPDHFDNNVFSNIPGHFTWFNPISTVASEFQRPRDIAFLVKHLQTRQSQTATFFGSYADPGRLGITGHSYGGMTSYAAGEQVAEIDAIAPLNPVILVPTTKFFTKPLLLLVGENDNLASSMFNSCEVAKRNYQTHKGNKAFLFLKNSGHYSATDACMLLPPGFINDDITGCGGAMLNPDIANEIVAAYQVAFFSITLKQDARYQDYLNKNNYPDNLDYEVSWK
B4: unnamed (protein)
chain: MSQYDPFLRGPFPAGVKTYEFEDTSRDRKLPIECWYPATSAYKGKDLDKETQDQFQLMEGFPKARQNAVRDAEIVDDSFPLIIFSHGFAGHRRQTTHFCTHLAGHGYIVASIDHIGSTLPEIMQMVMKVRKEGKLPDIEKFMEDVANDRPVDATFTIDTILAGELGPGIDPDRIGITGHSFGGWTTLVTTKSDTRIKAALPLAPGGGKSPLYGKDNPLTKMLTLDWERTVPTLYLTAEFDTLLPLDGMKDMFDRTPEPKGMVVLLNADHFHFCDGVEVVHDFFRQMGGFVGGMDPGGESEPAPMKKAKPSSELCPGKDAYTFIQGIGLAHMDAHLKGNSDAIELLKGDIAALLADRGVKVEVMQG
B5: unnamed (protein)
chain: QNSANVQNEISYDVFDYAQHPMGTIWGDPLPDAPALAARGEYMVGVQTLHLSNPNQTDVINTITSKSTVIYDRPLTVEVWYPATLKAGQVQVTVYCDFLGRYDKPGTLVPYTFLGRATRDAVPDTADGPYPLIIISHGYPGSRHLLFYLGENLASKGYVVVSIDHTDSTYKDVGHFASTLVNRSLDQKFVIREILKMPIWKDLCNPNEVGIIGYSMGGYGALRTLGAGLEDSNTIKGFLGEFASMLIAKPSDEGDPLVKAAVLFAPWGGSFGTGPTGLWDKASLAKITVPTLWIAGSQDDIAGYEGIVNLFNSSVNSRRYLLTYDNALHNVAPHPAPSIATEFGDYYRFADPVWDMWRIDSINEHFVTAFFDLYLKGDESAGSYLDMKVENSNEGVYSDQAESSTYWPGFQPRTALGLKFR
B6: unnamed (protein)
chain: VEPLADPAKPGPYPVGVTTMLLVDHSRTDNALAGGPRSLMTEIWYPATDDTRGLPKNRLLDFFNRNTDPGFTVLLKMAFGIDLIQADKDFRNDAVRDARVRDGRFPLVLFSHGNGGIRMQNAYWCEHMASHGYIVMAPDHTGNCAVTFIDGRIFPFNDSEEGREQSRQDRPKDISFLIDAMERMNKGADSRFMGKVDLDHIGVAGHSFGGFTSTWVADAEPRVDAIVPMAGAGAERVNYTCPVMVLVATEDDTLGPERMADLRRYYDESKGPRYLVEFLNAGHFSFTEMYQLKPDFGDGCGTGTRITNGEPLTYIAMDVAFPLIKGYTTAFFGKYLKGLDGYDAYLAANHNPNELVVKSSIPETPQ
B7: unnamed (protein)
chain: VEIHDLHFYNRYNHTVAATIYLPENLNNSPAVIFCGGWLSSREMYSWLPEELAKRGYVVLAIDPSGNGDSYGKLPSFKIFGVRIFSVIDGPYNYINGVWSSDIYDAVTFLTTNYRVSKNVALIGHSMGGFAVTDEALKDGRIKTVIALSDADIYAIKNLKIPVMVITGDFDLIINDNLVAIPGYNAANPPKELIVIKFGTHNGFTNLIWPMPPWNHNVTLYYLSSWLDCFLREDRESCKTLEKPHKYLSTLSESKCNLDGKEKVIKRATGRRKTFTAFLLIFLFLAVLILYLRSKEG
B8: unnamed (protein)
chain: MMKDIAITFREGTIAARIYLPPPVHRAGEPHPGIIILHGYLAQQIQFDDLPRRLARKGYVAITFDMPGHGRSSGKRGYIEKDLQIDAATTVLDHLISLPNVDPKRILVIGHSLGGAMGTYLCARDPRPTAFVAIAPAGSLKRIVPLPARMLFGIPYIIHRIKKRMTGNSLYFHSIVTEHIVWADKRKVKFELERELLQHRQPVDNYRTIFLIDPRIPARKVTIPTIMFLASRDRVVPNRISRELFDNIASDDKTLLTIENSGHSIMSDWKKEDFWKMLVPWLETHIPP

substrate: PET; experiment: Proxy for plastic degradation [HPLC-UV] (mmol); conditions: pH 8; 30 °C

Proxy for plastic degradation, 0:
B1
B2
B3
B4
B5
B6
B7
B8

same assay, conditions: pH 8; 60 °C

Proxy for plastic degradation, 0:
B1
B2
B3
B4
B5
B6
B7
B8
